# Source: US20130323786A1 (Biogen, published 2013)
# Where a chain is given by its changes, count along the chain named. In names and notes the source's numbering stands.
# T1: LINGO-Fc (human, UniProt Q96FE5 40-538, limits assumed)
# T1 construct: not shown: Fc part
# T1 sequence: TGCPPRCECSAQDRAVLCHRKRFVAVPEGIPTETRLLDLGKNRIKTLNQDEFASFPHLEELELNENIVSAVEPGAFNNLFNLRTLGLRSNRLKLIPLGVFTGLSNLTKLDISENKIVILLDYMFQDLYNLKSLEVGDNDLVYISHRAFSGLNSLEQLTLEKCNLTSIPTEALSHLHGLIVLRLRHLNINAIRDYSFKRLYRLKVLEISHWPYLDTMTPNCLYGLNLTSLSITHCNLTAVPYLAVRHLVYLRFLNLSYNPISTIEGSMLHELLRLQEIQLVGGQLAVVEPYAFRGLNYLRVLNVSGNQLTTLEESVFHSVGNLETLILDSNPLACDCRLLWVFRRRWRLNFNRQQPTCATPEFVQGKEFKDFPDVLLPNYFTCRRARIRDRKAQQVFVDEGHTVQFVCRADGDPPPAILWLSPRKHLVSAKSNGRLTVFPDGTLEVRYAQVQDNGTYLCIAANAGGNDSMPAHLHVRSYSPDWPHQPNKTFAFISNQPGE
# B1: WT Li33 (Table 11) (antibody, V domains shown)
# VH: EVQLLESGGGLVQPGGSLRLSCAASGFTFSIYPMFWVRQAPGKGLEWVSWIGPSGGITKYADSVKGRFTISRDNSKNTLYLQMNSLRAEDTATYYCAREGHNDWYFDLWGRGTLVTVSS
# VL: DIQMTQSPGTLSLSPGERATLSCRASQSVSSYLAWYQQKPGQAPRLLIYDASNRATGIPARFSGSGSGTEFTLTISSLQSEDFAVYYCQQYDKWPLTFGGGTKVEIKR
# B2: Li33 variant I57F (SEQ ID NO:164) (antibody, V domains shown)
# VH: B1 VH with I57F
# VL: B1 VL
# notes: unchanged chain from WT Li33
# B3: Li33 variant W50L (SEQ ID NO:149) (antibody, V domains shown)
# VH: B1 VH with W50L
# VL: B1 VL
# notes: unchanged chain from WT Li33
# B4: Li33 variant P53W (SEQ ID NO:154) (antibody, V domains shown)
# VH: B1 VH with P53W
# VL: B1 VL
# notes: unchanged chain from WT Li33
# B5: Li33 variant P53G (SEQ ID NO:180) (antibody, V domains shown)
# VH: B1 VH with P53G
# VL: B1 VL
# notes: unchanged chain from WT Li33
# B6: Li33 variant I57V (SEQ ID NO:185) (antibody, V domains shown)
# VH: B1 VH with I57V
# VL: B1 VL
# notes: unchanged chain from WT Li33
# B7: Li33 variant W94V (SEQ ID NO:171) (antibody, V domains shown)
# VH: B1 VH
# VL: B1 VL with W94V
# notes: unchanged chain from WT Li33
# B8: Li33 variant I57G (SEQ ID NO:159) (antibody, V domains shown)
# VH: B1 VH with I57G
# VL: B1 VL
# notes: unchanged chain from WT Li33
# B9: Li33 variant I57Y (SEQ ID NO:182) (antibody, V domains shown)
# VH: B1 VH with I57Y
# VL: B1 VL
# notes: unchanged chain from WT Li33
# B10: Li33 variant W94G (SEQ ID NO:169) (antibody, V domains shown)
# VH: B1 VH
# VL: B1 VL with W94G
# notes: unchanged chain from WT Li33
# B11: Li33 variant W104L (SEQ ID NO:177) (antibody, V domains shown)
# VH: B1 VH with W104L
# VL: B1 VL
# notes: unchanged chain from WT Li33
# B12: Li33 variant W94Q (SEQ ID NO:170) (antibody, V domains shown)
# VH: B1 VH
# VL: B1 VL with W94Q
# notes: unchanged chain from WT Li33
# B13: Li33 variant W50H (SEQ ID NO:147) (antibody, V domains shown)
# VH: B1 VH with W50H
# VL: B1 VL
# notes: unchanged chain from WT Li33
# B14: Li33 variant W94A (SEQ ID NO:165) (antibody, V domains shown)
# VH: B1 VH
# VL: B1 VL with W94A
# notes: unchanged chain from WT Li33
# B15: Li33 variant I57N (SEQ ID NO:161) (antibody, V domains shown)
# VH: B1 VH with I57N
# VL: B1 VL
# notes: unchanged chain from WT Li33
# B16: Li33 variant I57T (SEQ ID NO:186) (antibody, V domains shown)
# VH: B1 VH with I57T
# VL: B1 VL
# notes: unchanged chain from WT Li33
# B17: Li33 variant W94L (SEQ ID NO:167) (antibody, V domains shown)
# VH: B1 VH
# VL: B1 VL with W94L
# notes: unchanged chain from WT Li33
# B18: Li33 variant I57H (SEQ ID NO:162) (antibody, V domains shown)
# VH: B1 VH with I57H
# VL: B1 VL
# notes: unchanged chain from WT Li33
# B19: Li33 variant W50M (SEQ ID NO:150) (antibody, V domains shown)
# VH: B1 VH with W50M
# VL: B1 VL
# notes: unchanged chain from WT Li33
# B20: Li33 variant W50F (SEQ ID NO:148) (antibody, V domains shown)
# VH: B1 VH with W50F
# VL: B1 VL
# notes: unchanged chain from WT Li33
# B21: Li33 variant W104M (SEQ ID NO:176) (antibody, V domains shown)
# VH: B1 VH with W104M
# VL: B1 VL
# notes: unchanged chain from WT Li33
# B22: Li33 variant I57L (SEQ ID NO:163) (antibody, V domains shown)
# VH: B1 VH with I57L
# VL: B1 VL
# notes: unchanged chain from WT Li33
# B23: Li33 variant I57M (SEQ ID NO:160) (antibody, V domains shown)
# VH: B1 VH with I57M
# VL: B1 VL
# notes: unchanged chain from WT Li33
# B24: Li33 variant I57W (SEQ ID NO:181) (antibody, V domains shown)
# VH: B1 VH with I57W
# VL: B1 VL
# notes: unchanged chain from WT Li33
# B25: Li33 variant P53T (SEQ ID NO:153) (antibody, V domains shown)
# VH: B1 VH with P53T
# VL: B1 VL
# notes: unchanged chain from WT Li33
# B26: Li33 variant W104H (SEQ ID NO:156) (antibody, V domains shown)
# VH: B1 VH with W104H
# VL: B1 VL
# notes: unchanged chain from WT Li33
# B27: Li33 variant P53L (SEQ ID NO:151) (antibody, V domains shown)
# VH: B1 VH with P53L
# VL: B1 VL
# notes: unchanged chain from WT Li33
# B28: Li33 variant W50D (SEQ ID NO:175) (antibody, V domains shown)
# VH: B1 VH with W50D
# VL: B1 VL
# notes: unchanged chain from WT Li33
# B29: Li33 variant I57P (SEQ ID NO:184) (antibody, V domains shown)
# VH: B1 VH with I57P
# VL: B1 VL
# notes: unchanged chain from WT Li33
# B30: Li33 variant W94D (SEQ ID NO:166) (antibody, V domains shown)
# VH: B1 VH
# VL: B1 VL with W94D
# notes: unchanged chain from WT Li33
# B31: Li33 variant W104Q (SEQ ID NO:158) (antibody, V domains shown)
# VH: B1 VH with W104Q
# VL: B1 VL
# notes: unchanged chain from WT Li33
# B32: Li33 variant W104I (SEQ ID NO:179) (antibody, V domains shown)
# VH: B1 VH with W104I
# VL: B1 VL
# notes: unchanged chain from WT Li33
# B33: Li33 variant W50I (SEQ ID NO:174) (antibody, V domains shown)
# VH: B1 VH with W50I
# VL: B1 VL
# notes: unchanged chain from WT Li33
# B34: Li33 variant W94S (SEQ ID NO:172) (antibody, V domains shown)
# VH: B1 VH
# VL: B1 VL with W94S
# notes: unchanged chain from WT Li33
# B35: Li33 variant I57S (SEQ ID NO:183) (antibody, V domains shown)
# VH: B1 VH with I57S
# VL: B1 VL
# notes: unchanged chain from WT Li33
# B36: Li33 variant W94N (SEQ ID NO:168) (antibody, V domains shown)
# VH: B1 VH
# VL: B1 VL with W94N
# notes: unchanged chain from WT Li33
# B37: Li33 variant W104Q (SEQ ID NO:187) (antibody, V domains shown)
# VH: B1 VH with W104Q
# VL: B1 VL
# notes: unchanged chain from WT Li33
# B38: Li33 variant P53S (SEQ ID NO:152) (antibody, V domains shown)
# VH: B1 VH with P53S
# VL: B1 VL
# notes: unchanged chain from WT Li33
# Molecular target: T1, LINGO-Fc
# Experiment: direct ELISA on LINGO-Fc; half-maximal concentration relative to Li33;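 note: direct binding ELISA on plates coated with LINGO-Fc, concentration giving half of saturating binding, expressed as a ratio to the same value for the comparator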
# Experimental: (§1) A direct binding ELISA assay was performed using LINGO-Fc coated plates. The half maximal concentration that gave 50% saturation of binding was measured and is reported as a ratio of the same measurement for Li33. In addition, the OD450 for maximal saturation value was measured and is reported as a ratio of the same measurement for Li33.
row,ELISA Ratio [ratio],Binder
1,1,B1
2,2,B2
3,1.8,B3
4,3.9,B4
5,3.1,B5
6,1.4,B6
7,1.4,B7
8,2.3,B8
9,0,B9
10,0.9,B10
11,2.5,B11
12,0.9,B12
13,1.3,B13
14,1.6,B14
15,2.9,B15
16,1.1,B16
17,0.6,B17
18,3.2,B18
19,2,B19

row,ELISA Ratio [ratio],Binder
1,1.2,B20
2,3.8,B21
3,0.7,B22
4,3.8,B23
5,0,B24
6,2.1,B25
7,0.1,B26
8,2.2,B27
9,4,B28
10,0.6,B29
11,1.5,B30
12,2.4,B31
13,6.5,B32
14,93.5,B33
15,1.3,B34
16,0.6,B35
17,0.8,B36
18,1.1,B37
19,2.5,B38

# Molecular target: T1, LINGO-Fc
# Experiment: direct ELISA on LINGO-Fc; OD450 at saturation relative to Li33;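 note: binding to plate-coated LINGO-Fc read by OD450, with the value at maximal saturation divided by the corresponding Li33 value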
# Experimental: as §1
row,Plateau Ratio [ratio],Binder
1,0.91,B1
2,0.83,B2
3,1,B3
4,0.55,B4
5,0.83,B5
6,1.13,B6
7,0.91,B7
8,0.91,B8
9,1.03,B10
10,0.69,B11
11,1.05,B12
12,0.87,B13
13,0.91,B14
14,1.1,B15
15,1.01,B16
16,0.97,B17
17,1.07,B18
18,0.93,B19

row,Plateau Ratio [ratio],Binder
1,0.86,B20
2,0.88,B21
3,1,B22
4,1.09,B23
5,0.85,B25
6,0.91,B26
7,1.13,B27
8,0.71,B28
9,1.27,B29
10,0.87,B30
11,0.91,B31
12,0.62,B32
13,12.4,B33
14,0.99,B34
15,0.96,B35
16,1.05,B36
17,0.67,B37
18,1.43,B38
